# From patent publication US9035028B2, “Temperature sensitive conjugate compositions” (Emory University, priority 2010, dated 2015)
# B1: EMP-scFv: fusion of elastin mimetic polypeptide (EMP) and activation-specific GPIIb/IIIa-blocking single-chain antibody; 704 amino acids, approximately 70 kDa (protein)
# chain: MAVPAVGIPAVGIPAVGIPAVGIPAVGIPAVGIPAVGIPAVGIPAVGIPAVGIPAVGIPAVGIPAVGIPAVGIPAVGIPAVGIPAVGIPAVGIPAVGIPAVGIPAVGIPAVGIPAVGIPAVGIPAVGIPAVGIPAVGIPAVGIPAVGIPAVGIPAVGIPAVGIPAVGIPAVGIPAVGIPAVGIPAVGIPAVGIPAVGIPAVGIPAVGIPAVGIPAVGIPAVGIPAVGIPAVGIPAVGIPAVGIPAVGIPAVGIPAVGIPAVGIPAVGIPAVGIPAVGIPAVGIPAVGIPAVGIPAVGIPAVGIPAVGIPAVGIPAVGIPAVGIPAVGIPAVGIPAVGIPAVGIPAVGIPAVGIPAVGIPAVGIPAVGIPAVGIPAVGIPAVGIPAVGIPAVGIPAVGIPAVGIPGGGGSMMAEVQLVESGGGLVQPGGSLRLSCAASGFMFSRYAMSWVRQAPGKGPEWVSGISGSGGSTYYADSVKGRFTVSRDNSKNTLYLQMNSLRAEDTAVYYCARIFTHRSRGDVPDQTSFDYWGQGTLVTVSSGSASAPKLEEGEFSEARVSSELTQDPAVSVALGQTVRITCQGDSLRNFYASWYQQKPGQAPTLVIYGLSKRPSGIPDRFSASSSGNTASLTITGAQAEDEADYYCLLYYGGGQQGVFGGGTKLTVLRQPKAAPSVTLFPPSSAAAGSEQKLISEEDLNSHHHHHH
# Experiments:
# [1] = test system: platelet aggregates; assay: Flow chamber: binding to platelet aggregates under physiological flow; type: cell-based; settings: hypothermic temperatures
# Method: Temperature-dependent binding of EMP-scFv to platelet aggregates was analysed using a flow chamber system. Vitrotubes rectangular capillaries (0.20×2.0 mm) were washed with 70% ethanol, dried, and coated overnight with 10 μg/ml of collagen (Collagen Reagent Horm Nycomed). Liquid was entered into the capillary via capillary drag. Capillaries were blocked for 1 hour with 1% BSA and then washed with PBS. The capillary was connected on the one end to a reservoir and on the other end to a Harvard medical pump by tubing. Before connecting the capillary all tubes were flushed with PBS in order to avoid air bubbles entering the capillary. PRP was then drawn into the capillary and numerous platelet aggregates were formed within 10 minutes. The capillary was then washed with PBS via the pump. In the meantime, the EMP-scFv (50 μg/mL) was incubated with PENTA-HIS Alexa Fluor 488 (Qiagen) antibody for 10 minutes in a final volume of 1 mL, and then drawn into the capillary containing platelet aggregates at physiological flow rate of 60s^−1. The capillary was then imaged with a 20× magnification objective, after which DIC and fluorescent images were captured using Olympus IX81 microscope with XM10 camera. The experiments were conducted at 22° C. and 37° C.
# [2] = target: T1, GPIIb/IIIa on human platelets (Homo sapiens, UniProt P05106+P08514); assay: Flow cytometry: binding to human platelets; settings: for binding to human activated platelets: 20 μM ADP
# T1 construct: endogenous in cells
# Method: Human blood was collected by venipuncture with a 21-gauge butterfly needle from healthy volunteers and anticoagulated with citric acid. Platelet-rich plasma (PRP) was obtained by centrifugation (GS-6R centrifuge, Beckman Coulter) at 100×g at room temperature for 10 min.
# Human PRP was diluted 1/50 in modified Tyrode's buffer containing 2 mM MgCl2 and 2 mM CaCl2. Platelets were either activated by addition of 20 μM ADP, or non activated, followed by the incubation with 15 and 50 μg/mL EMP-scFv fusion protein or EMP at 22° C., 32° C. and at 37° C. for 15 min. Mouse platelets were either pre-activated for 10 min by addition of 0.1 U/mL thrombin (Enzyme Research Laboratories), or non activated, before the incubation with 15 and 50 μg/mL of EMP-scFv fusion protein at 22° C., 32° C. or 37° C. for 15 min. In both, human and mouse samples, EMP-scFv was detected via 15 min in-dark incubation with secondary antibody (Penta-His Alexa Fluor 488, Qiagen) directed against the His(6)-tag of the single-chain antibody.
# In re-warming experiments, activated and non-activated diluted human PRP was incubated with 15 and 50 μg/mL of EMP-scFv for 15 minutes at 22° C., followed by a 15-min in dark incubation with secondary Penta-His Alexa Fluor 488 antibody. Half of the reaction was then fixed with 1× Cell FIX, while the other half was incubated at 37° C. for either 15 or 30 minutes, before being fixed and measured in FACS.
# [3] = test system: activated human platelets; assay: Microscopic analysis of platelet aggregates; type: cell-based; settings: 22° C.
# Method: For the microscopic analysis of platelet aggregates at different temperatures, non-diluted human PRP was placed onto a glass slide and ADP was added to a final concentration of 20 μM, in the presence and absence of EMP-scFv (50 μg/mL). Abciximab was used as a positive control at a concentration of 10 μg/mL. The experiments were conducted at 22° C. and 37° C. Phase contrast microscopy images were taken using an Olympus CKX41 microscope.
# [4] = test system: carotid artery thrombosis; assay: Ferric chloride-induced mouse carotid artery thrombosis model; type: in vivo; settings: compared to the control group
# Method: C57BL/6 mice weighing from 20-25 g were used. Care and use of laboratory animals followed the national guidelines and were approved by the institutional animal care and ethics committees. Mice were anesthetized with isoflurane, following an intra-peritoneal injection with ketamine (100 mg/kg BW) and xylazine (20 mg/kg BW). The body core temperature was monitored with a digital thermometer, and controlled at either 28° C. or 37° C. with a thermal pad (Temperature Controller TR-200, Fine Science Tools Inc.). Reducing the body temperature to 28° C. was achieved by a gradual drop, at a rate of 0.3-0.4° C./min. The mice on the thermal pad were placed under a dissecting microscope (SZ61, Olympus). An incision of the skin was made directly on the top of trachea, and vessels used for experiment were bluntly isolated from surrounding tissues. […] After rinsing with normal saline, a nano-Doppler flow probe (0.5 VB, Transonic) was then positioned over the vessel and the blood flow rate (ml/min) was measured by a transit-time perivascular flow-meter (TS420, Transonic Systems Inc.). […] Jugular vein blood flow was recorded 15 minutes after induction of injury in mice pre-treated with EMP-scFv, eptifibatide or saline. The blood flow recorded at 1 minute was considered as the initial blood flow rate. […]
# [5] = test system: human platelets; assay: 96-well plate light transmission aggregometry, ADP-driven platelet aggregation; type: cell-based; settings: 22° C.
# Method: Light transmission aggregometry was performed using a Biorad Benchmark plate reader. After incubation of human PRP with EMP-scFv (15 μg/mL), vehicle (PBS) or the GPIIb/IIIa blocker abciximab (10 μg/mL) (Reopro®, Eli Lilly, Indianapolis, U.S.A.) for 10 minutes at different temperatures, the aggregation was induced by the addition of 2 or 20 μM ADP with vigorous stirring in a 96-well plate. The absorbance was determined at 595 nm every 15 seconds for 16 minutes between vigorous shaking at 22° C. and 37° C.
molecule,measurement,setting,value
B1,binding to platelet aggregates under flow,[1],induced binding
same,binding to human activated platelets,[2]; 22° C.,significantly higher level
same,binding to human activated platelets,[2]; 37° C.,totally abolished
same,dissociation from GPIIb/IIIa upon re-warming,"[2]; bound to activated platelets at 22° C., then temperature increased to 37° C.",did not dissociate
same,binding to resting platelets,"[2]; human, regardless of the temperature",No binding
same,aggregation of activated human platelets (microscopy),[3],inhibited aggregation
same,occlusion time,[4]; 28° C.,significantly prolonged
same,occlusion time,[4]; 37° C.,remained unchanged
same,ADP-driven platelet aggregation,[5],effective inhibition
